Assay results published in article PMC10754087.

Biological target: Yeast Hsp90 wildtype construct without the coiled-coil motif and without cysteine mutation (yeast) (UniProt P02829)
Experiment: neutron spin echo spectroscopy; Hsp90 wildtype at 50 mg mL^-1 (614 µM) in D2O buffer with 150 mM KCl, 10 mM MgCl2, 295 K; effective diffusion compared with rigid-body models of dimer and hexamer

stoichiometry N: 6
Substance: Yeast Hsp90 wildtype construct without the coiled-coil motif and without cysteine mutation, P02829 1-709 (natural protein; other documents disagree on this pair)
